Experimental data as given in the supplement of paper PMC10567573.
± gives the standard deviation.

Assay: protein stability index of a GFP-peptide fusion (GPS, HEK-293T) (PSI 1-6); higher = more stable
Conditions: c terminus: a fixed tail appended
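Further: 24-mer peptide tiles fused after GFP, lentivirally expressed, FACS-sorted into six equal bins by GFP/DsRed ratio, decoded by Illumina sequencing, PSI is the read-weighted mean bin number.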

Sequence	protein stability index (treatment: DMSO)	protein stability index (treatment: MLN4924 1 uM, 8 h)
SKLAQLTLEQILEHLDNLRLNLTN [INTS3]	2.3 ± 0.39	2.2 ± 0.21
IMELTGGGQESSGLNLGKKISVPR [MYOZ1]	3.58 ± 0.19	3.83 ± 0.33
ELQEKQKNEKLISLQEQLQRFLKK [TAF7L]	3.36 ± 0.33	3.39 ± 0.15
KGDVEEVQGPGVVGEFPIISPGRV [FBXO3]	4.81 ± 0.27	4.8 ± 0.2
ALVHDHQAYAHYLLATFPRRALAP [ANKRD9]	2.22 ± 0.21	2.4 ± 0.19
ASRLLTTALTSFCAKYTYPVCSAL [FANCE]	3.29 ± 0.58	3.34 ± 0.49
GIPWEAGARQISYSIPEELEKGSF [PCDHGA10]	4.24 ± 0.059	3.87 ± 0.34
AGSSLPTSSKVNATVPSNMMSVNG [ACBD3]	4.13 ± 0.19	4.16 ± 0.14
CRETGSFLDLFRYRVLLGHTLILM [SLC22A15]	2.97 ± 0.59	2.45 ± 0.38
KRKLDTILNLERDVEDLQRDKARL [NFE2L1]	4.36 ± 0.25	4.46 ± 0.17
NTAKSTSRVTAFLDDLSQKLKPLG [NLN]	3.42 ± 0.15	3.35 ± 0.044
HLRIHTGEKPYKCTHCSKSFRQRA [ZNF449]	2.83 ± 0.43	3.11 ± 0.38
RRDCDALMAGCIQEARERWNFDFV [CDKN1A]	2.06 ± 0.25	2.05 ± 0.19
GALYGITLIPTCKFYTWLWGVFYY [SCD]	2.39 ± 0.41	–
VHEFCAGRECQPRWETSSWSECSR [ADAMTSL2]	2.42 ± 0.28	2.85 ± 0.53
LDADAAQRVVYLEGCGPPLRRWLR [TSPAN10]	2.69 ± 0.2	2.99 ± 0.14
FDIRILMAKSVKYTVNFLEAKEGD [CARM1]	2.27 ± 0.28	2.33 ± 0.33
DARDEELEKDTMDNWDEKKLEEVV [ZC3H15]	5.45 ± 0.4	5.21 ± 0.25
AVGGRNAAGELPTVECYNPRTNEW [KLHL13]	4.2 ± 0.13	4.33 ± 0.13
CQTGGVEDQEEWHAQVVEELSNFK [ZBED1]	5.73 ± 0.26	5.6 ± 0.16
IYSTKLYRFFKYIENRDVAKSVLK [BTBD10]	3.1 ± 0.97	2.37 ± 0.61
DAWKRPDALPGQSKRLAVPCKLEK [TLE6]	4.2 ± 0.17	4.28 ± 0.2

Sequence	protein stability index (treatment: DMSO)	protein stability index (treatment: MLN4924 1 uM, 8 h)
VACGMVHLLIPELGACVAPGGNLI [DNAAF3]	2.78 ± 0.27	3.11 ± 0.26
VLDFDFEKLCSISLSHINAYACLV [USP39]	2.83 ± 0.59	2.56 ± 0.53
FIRCSLQCRDLVDEAKKFHLRPEL [KLHL12]	2.67 ± 0.8	2.82 ± 1.4
TNNPRFDKMEGNPICVQIPWDKNP [CRY1]	3.47 ± 0.3	3.69 ± 0.25
TADISSHFQEAIDFIDCVREKGGK [DUSP5]	4.4 ± 0.26	4.7 ± 0.22
KASSRKPFGILSPNVLCSMSGKSP [FBXO34]	2.83 ± 0.095	3 ± 0.27
LGIPYYETSVVAQFGIKDVFDNAI [RHOBTB2]	2.17 ± 0.18	2.14 ± 0.23
LQQQPLCTSVNTIYDNAVQGLRRH [LRRC59]	3.66 ± 0.091	3.83 ± 0.13
GKEDSTLQLLREENRALQQLLEQK [CBY2]	4.81 ± 0.23	4.84 ± 0.38
KRKEEEALKDSLRPKLSEEQQRII [VDR]	5.09 ± 0.26	5.06 ± 0.23
ETNLLLAQKQRLERALDATEVPFS [TEKT4]	4.1 ± 0.29	4.21 ± 0.25
YISETVLAIDAIHQLGFIHRDIKP [STK38L]	2.33 ± 0.74	2.56 ± 0.24
QGLLHEAGSTDDRIVVPQRGRSTR [SPNS1]	5.13 ± 0.32	5.14 ± 0.15
RRNPELQEELQIQAAVAAGDVHTV [ASB7]	4.85 ± 0.18	4.82 ± 0.16
VQLSDEMFVFQDGRWVNENCRLQS [CBY2]	3.06 ± 0.26	3.03 ± 0.34
LQDGRRKVHYLFPDGKEMAEEYDE [DPCD]	4.7 ± 0.064	4.72 ± 0.37
IEMFKSITHSTVGSKGEKDLGASS [EHMT1]	4.23 ± 0.15	3.85 ± 0.36
HQTLKCSALATQYMHCVNHAKQSM [CHCHD3]	2.1 ± 0.22	2.29 ± 0.17
YQRWIYRVDPTRVNEFGMSGEDPT [CLPTM1]	2.6 ± 0.34	2.72 ± 0.3
LTLYNPTGTALRFRVLCTAPAKYT [MOSPD3]	2.79 ± 0.65	2.69 ± 0.48
ETFSTLKNWVKELRQHGPPNIVVA [RAB22A]	2.4 ± 0.69	2.36 ± 0.14
ILAETGIRKTVKRLRKHQHVGDFA [ELOA2]	2.78 ± 0.23	3.16 ± 0.49

Sequence	protein stability index (treatment: DMSO)	protein stability index (treatment: MLN4924 1 uM, 8 h)
KLLVVDRTRRLGNMKNGANDVKHH [PRKX]	3.23 ± 0.46	3.48 ± 0.15
PEAKVLHTKRLYRAVVEAVHRLDL [SMG5]	2.19 ± 0.3	2.17 ± 0.11
LVQRQMSVIEEDLEEFQLALKHYV [NECAB1]	2.32 ± 0.36	2.6 ± 0.23
TQSVSECITEDGRTVAVGDIVWGK [PWWP2B]	4.09 ± 0.22	4.25 ± 0.21
LDYYKTGIIRCPDGISIPELREAC [BTBD10]	2.42 ± 0.34	2.5 ± 0.38
WIGNEWLPSLGLPQYRSYFMECLV [PPFIA4]	3.67 ± 0.24	2.15 ± 0.088
DPVELRRLNFQTPGMASHPPIPIL [PTPRD]	2.91 ± 0.19	3.04 ± 0.33
LTCDSSTSSSDDDEEVSGSSKTIT [C18orf25]	5.4 ± 0.26	5.46 ± 0.21
IPAEENASTSTPSSTLVRPIRSRR [FAM189A2]	5.29 ± 0.16	5.33 ± 0.19
APKKELINIKGISEAKADKILAEA [RAD51]	4.05 ± 0.25	4.49 ± 0.46
GSTNLTGLFFPPQLNGTANDTAGP [NFE2L1]	3.93 ± 0.14	4 ± 0.25
QYAIISEAWRLVEEGIVSPSDLDL [CRYL1]	3.16 ± 0.19	3.21 ± 0.34
LGTELAERQGNGQQAMSLAILRVI [KCNA3]	2.42 ± 0.19	2.52 ± 0.12
SASSIKQILLEWCRSKTLGYQHVD [SMTNL2]	2.22 ± 0.19	2.42 ± 0.35
GRDRNLAPDEKRSNVRWDHESVCK [LUC7L3]	4.61 ± 0.41	4.55 ± 0.2
PLVTAIEIVSIWILSFILAIPEAI [EDNRA]	3.48 ± 0.8	3.68 ± 0.15
RSPSGSLRSARGSRGGTRGWLPSH [RBMY1A1]	3.95 ± 0.18	4.07 ± 0.17
KILLDAQHESGQSSSRGSSHCDSP [BNIP3L]	4.91 ± 0.18	4.83 ± 0.1
GPRPPAGELGSIGDHERAIDFSPY [CEBPB]	4.15 ± 0.25	4.28 ± 0.21
WIHRPGCRCKNSNTVYCKLESCPS [SPRY1]	2.62 ± 0.26	3.21 ± 0.78
LELAQFHNAHQLAAWCLHHICTNY [RHOBTB1]	2.7 ± 0.48	2.59 ± 0.43
